# Measurements as given in paper PMC4019489 (Molecular Biology of the Cell, 2014).
# Target: the molecule itself
# Assay: SEC
protein,measurement,value
"soluble, C-terminally His-tagged extracellular domain of WT JAM-A (junctional adhesion molecule-A) (domain or fragment, UniProt Q9Y624 28-238, looked up) SVTVHSSEPEVRIPENNPVKLSCAYSGFSSPRVEWKFDQGDTTRLVCYNNKITASYEDRVTFLPTGITFKSVTREDTGTYTCMVSEEGGNSYGEVKVKLIVLVPPSKPTVNIPSSATIGNRAVLTCSEQDGSPPSEYTWFKDGIVMPTNPKSTRAFSNSSYVLNPTTGELVFDPLSASDTGEYSCEARNGYGTPMTSNAVRMEAVERNVGV",stoichiometry N,2
